The data set is described as follows: amyloid nucleation score (Sup35N fusion, yeast selection) (log enrichment); library NNK1; higher = more nucleation; inactive = no reads after selection. In short, it runs like this:
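Random libraries were run with three technical output replicates. In each, psi-negative yeast expressing Sup35N fused to peptides of 20 random codons were induced 24 hours with 100 μM copper sulfate and grown 7 days at 30°C on medium lacking adenine and uracil, and input and output plasmid inserts were Illumina-sequenced. The nucleation score is the DiMSum log enrichment of output over input reads, centred on the mode score of non-aggregating sequences, and sequences under 100 input reads were excluded.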

Consider 84 substances from the supplement of paper PMC12042874.

± gives the uncertainty stated by the source.

With AGYCVCLYMLEYSGTFGYSH, the amyloid nucleation score stood at 1.63 ± 0.19.
To HLKHVWSYLPSSNVEEMQ belongs 0.766 ± 0.63; to RALRGSECGMNRRPLRGCVK, -0.167 ± 0.22.
To QCVRLDVTT belongs -2.14 ± 2.1.
In the case of SGNCSVSW it was 0.755 ± 0.97.
For SLKVTAPTQMGQCVVGGVYH, the amyloid nucleation score was -0.279 ± 0.88.
In the case of LTARSFKCF it was “inactive”; in that of GRNTGFFHFLWLFRYVTLVM, -1.58 ± 1.7.
In the case of FSASLNDLGLQKRVNVSVD it was -0.413 ± 0.49; in that of ISTCLRTSFYVDVGNMSFCN, 0.206 ± 0.44; in that of LISACDRSPSVIPI, 0.252 ± 0.37.
Take DCWRRYYSSLLITVGGLFYK: the amyloid nucleation score was -0.014 ± 0.34.
To DITNVAWNMPNTRCEPKPLK belongs 0.444 ± 1.2; to FSWTYVYYNN, 0.433 ± 0.89; to SRIFRKLHYSTWIQMRGLCP, -0.431 ± 0.28.
To VYGVRAIR belongs 0.503 ± 0.61.
In the case of HFRDCVPYFMVSRSRGELGE it was -0.42 ± 0.75; in that of RNCNNVYFELSVLASFLRVR, 8.107 ± 0.05.
Take DIHNRDCVLYDRLDRHVYMK: the amyloid nucleation score is -0.083 ± 0.31.
Substance CMLLNWIPMRRARLTTFVGK had an amyloid nucleation score of 0.433 ± 0.58.
The substance LILSSCHERGSGGVFWTDHV returned an amyloid nucleation score of 0.924 ± 0.64.
Substance SCKCLTSTGGGSGDRKGWNG returned an amyloid nucleation score of 0.916 ± 0.55.
To WLSGYKSQMVK belongs -0.291 ± 0.78.
To FFLTDITTLHYQSRNRLFLT belongs -0.581 ± 0.23; to YVWMSDPSVTNHRGRLVDMG, 5.02 ± 0.098; to SSKSAWYVRWSVSVQNKGRG, -0.363 ± 0.44.
To GFLNYHWAGSYFERGM belongs 3.04 ± 0.13; to QRGAVVQDLAM, 0.728 ± 0.71.
Consider YYCRNPRSMG, for which the amyloid nucleation score was -0.134 ± 1.1.
In the case of NLVVQCADGVILSFWDHMVG it was 2.43 ± 0.32; in that of NCIVFVSPASTKDCKWGAAS, 1.66 ± 0.35.
To YAITRSAVICSNLALNMEC belongs 2.09 ± 0.23; to CTIRYWF, 1.5 ± 0.42.
Take GSIERFTFISVYYRLTPLSG: the amyloid nucleation score is -0.035 ± 0.54.
To WDKWI belongs 0.418 ± 0.49; to VRLCLVLLESDLLTGTVGIG, -1.02 ± 1.2; to IYGGRIS, -0.557 ± 0.75.
To CDRVGSKEQSFDKWPLWFAP belongs -1.18 ± 1.9; to YHPRTSYFCDVVFRGPERGN, 1.87 ± 0.69.
To FYLLTGLFSQVGTLLFHWSR belongs -0.819 ± 0.51; to PWRCLM, “inactive”.
The substance CMRMRMFSKVVGSLWWESGY gave an amyloid nucleation score of 0.054 ± 0.39.
Turning to SERVMEWGTLKLYDSVHCVL, the amyloid nucleation score is -1.55 ± 2.7.
To FAQFSAWRTTNGRYKHHFTL belongs -0.256 ± 0.52; to SGFIGS, -1.33 ± 1.3; to VGSRLQRHGDGTGSLGLSWC, “inactive”.
Regarding KSGTAFLFFKMI, the amyloid nucleation score was 0.399 ± 0.31.
In the case of SRGITRQFESHTCAEHRCGS it was -0.252 ± 0.97; in that of FSMVAPTVILLKYYN, -0.111 ± 0.21.
In the case of ETSSPLLEGG it was 0.554 ± 0.55.
In the case of DLDRDAKLS it was -1.43 ± 0.7; in that of LFMFRLKYVIHWDIG, 0.911 ± 0.54; in that of RAMKWLYVSNNDNMRKHFFS, -0.712 ± 0.42.
Regarding AESWHVGKS, the amyloid nucleation score was -0.593 ± 0.59.
For GIHSLFMVAIYFAYWLRKWV, the amyloid nucleation score was -0.877 ± 1.6.
The substance NSGNICSVGCGL returned an amyloid nucleation score of 3.09 ± 0.2.
To WDAHGDIVKG belongs 0.877 ± 1; to FAESSVVSFHLCRQMFASTA, -0.88 ± 0.52; to VSRNFVTKDSQLNGLSN, -1.52 ± 1.4.
Take ARERGCRSAH: the amyloid nucleation score was 0.332 ± 0.42.
In the case of CVELVLSCV it was -0.095 ± 0.43; in that of RYWYMTGMAMLNK, 0.58 ± 0.84; in that of VVSNVPVWTSGYYHHCCHRC, 0.856 ± 0.79.
To MTMAFRKLFSVVRILMNMRL belongs 0.059 ± 0.3.
In the case of LACYDQPATSRSTAGSCPVP it was 1.55 ± 0.7; in that of SMYVYDRGTGILLSCGVYFF, 1.82 ± 0.11; in that of VDRFEVLTYLKE, -0.175 ± 1.
Substance RIYRHIIVTGDNII had an amyloid nucleation score of 2.57 ± 0.56.
In the case of VGVHRHSSWWEFAYCASRQ it was -0.537 ± 0.71; in that of KWVEIITLCMEIWNLYIVCE, -0.048 ± 0.92.
In the case of SAHITDVLHKMWRNNTTTWY it was 1.15 ± 0.55; in that of SMGVMSCNMSWSSAWCVMCV, 0.289 ± 0.42.
For the substance MFSRF, the amyloid nucleation score was 0.607 ± 0.79.
With VHNCMVFLLKFIDSRHFIVI, the amyloid nucleation score was -0.292 ± 1.6.
To GDSVESQILLVVGCIY belongs -0.416 ± 1.2; to CSSIWHCPVYDVITLM, 0.282 ± 0.75.
In the case of WSLNERQNMLHLHRLTASLG it was -0.088 ± 0.88.
In turn, KANACGRFTN gave an amyloid nucleation score of 3.72 ± 0.1.
To GGQSS belongs 2.97 ± 0.16.
To LRHFCGTFAAVTRKRVYPLS belongs -0.95 ± 2.7; to SSSSVVLTRLQPTTGSYEMT, -0.667 ± 1.6; to LWVSNSSIRLDRNINQTLAT, 0.019 ± 1.4.
In the case of TYARLLNCSAYSTTF it was 0.048 ± 0.55.
Substance EYNYLDDTCWLGQVGRWLWF showed an amyloid nucleation score of 1.38 ± 0.28.
